Experimental data reported in article PMC3575545.
Where “and” joins values, the source holds several entries; their conditions need not be identical. Equal entries are not always repeated.

Tests used:
[1] = target: SRP (Ffh bound to 4.5 S RNA) with DACM-labeled Ffh Cys235 (UniProt P0AGD7); assay: FRET or BRET
[2] = target: acrylodan-labeled FtsY Cys356 (UniProt P10121); assay: other fluorescence titration

Substance	Kd [1] [nM]	fold destabilisation of the early complex by SecYEG (against no SecYEG) [1] [fold]	fold stabilisation of the activated complex by SecYEG (against no SecYEG) [2]
BODIPY-FL-labeled FtsY Cys487 (full-length FtsY) (from UniProt P10121 1-497) (receptor)	162	> 15	
Signal recognition particle (SRP; Ffh bound to 4.5 S RNA) (from UniProt P0AGD7 1-453) (complex)			2 fold and 4 fold
